Patent US20210340208A1 (ANWITA BIOSCIENCES, published 2021)
Numbering of substitutions follows the chain as printed. Numbers in names are those of the source.

B1: hIL-2-anti-HSA A2 (ligand)
chain: APTSSSTKKTQLQLEHLLLDLQMILNGINNYKNPKLTNMTTFKFYMPKKATELKHLQCLEEELKPLEEVLNLAQSKNFHLRPRDLISNINVIVLELKGSETTFMCEYADETATIVEFLNRWITFSQSIISTLTGSGGSGGSGGSGEVQLVESGGGLVQPGGSLRLSCAASGSTWSINTLAWYRQAPGKQRDLVARISSGGSTYYADSVKGRFTISRDNSKNTLYLQMNSLRAEDTAVYYCYAQSTWYPPSWGQGTLVTVSS
modifications: glycosylated IL-2 (site and glycan not stated for the tested protein)
notes: fused to anti-HSA VHH; also called hIL-2 mutein (R38N, L40T, C125S); glycosylated IL-2
B2: hIL-2-anti-HSA A49 (ligand)
chain: B1 chain with K32E, N38R, T40L, F42C, V69C
notes: fused to anti-HSA VHH; also called hIL-2 mutein (K32E, F42C, V69C, C125S); IL-2 with an additional disulfide bond
B3: hIL-2-anti-HSA A65 (ligand)
chain: B1 chain with Q13N, K32E, N38R, T40L, F42C, V69C
notes: fused to anti-HSA VHH; also called hIL-2 mutein (Q13N, K32E, F42C, V69C, C125S)
B4: hIL-2-anti-HSA A44 (ligand)
chain: B1 chain with K32E, N38A, T40L, F42K
notes: fused to anti-HSA VHH; also called IL2 mutein (K32E, R38A, F42K, C125S)
B5: hIL-2-anti-HSA A53 (ligand)
chain: B1 chain with N38R, T40L, F42C, V69C, K76E
notes: fused to anti-HSA VHH; also called hIL-2 mutein (F42C, V69C, K76E, C125S)
B6: hIL-2-anti-HSA A68 (ligand)
chain: B1 chain with K32E, N38R, T40L, F42C, V69C, S87E
notes: fused to anti-HSA VHH; also called hIL-2 mutein (K32E, F42C, V69C, S87E, C125S)
B7: hIL-2-anti-HSA A38 (ligand)
chain: B1 chain with K32E, N38A, T40L, F42A
notes: fused to anti-HSA VHH; also called IL2 mutein (K32E, R38A, F42A, C125S)
B8: hIL-2-anti-HSA A70 (ligand)
chain: B1 chain with K32E, N38R, T40L, F42C, V69C, V91I, I92L
notes: fused to anti-HSA VHH; also called hIL-2 mutein (K32E, F42C, V69C, V91I, I92L, C125S)
B9: hIL-2-anti-HSA A62 (ligand)
chain: B1 chain with T3A, M23K, F42A
notes: fused to anti-HSA VHH; also called hIL-2 mutein (T3A, M23K, R38N, L40T, F42A, C125S)
B10: hIL-2-anti-HSA A42 (ligand)
chain: B1 chain with K32E, N38E, T40L, F42G
notes: fused to anti-HSA VHH; also called IL2 mutein (K32E, R38E, F42G, C125S)
B11: hIL-2-anti-HSA A36 (ligand)
chain: B1 chain with K32E, N38A, T40L
notes: fused to anti-HSA VHH; also called IL2 mutein (K32E, R38A, C125S)
B12: hIL-2-anti-HSA A61 (ligand)
chain: B1 chain with T3A, H16N, F42A
notes: fused to anti-HSA VHH; also called hIL-2 mutein (T3A, H16N, R38N, L40T, F42A, C125S)
B13: hIL-2-anti-HSA A59 (ligand)
chain: B1 chain with T3A, Q13E, F42A
notes: fused to anti-HSA VHH; also called hIL-2 mutein (T3A, Q13E, R38N, L40T, F42A, C125S)
B14: hIL-2-anti-HSA A45 (ligand)
chain: B1 chain with K32E, N38E, T40L, F42K
notes: fused to anti-HSA VHH; also called IL2 mutein (K32E, R38E, F42K, C125S)
B15: hIL-2-anti-HSA A71 (ligand)
chain: B1 chain with K32E, N38R, T40L, F42C, V69C, I92L
notes: fused to anti-HSA VHH; also called hIL-2 mutein (K32E, F42C, V69C, I92L, C125S)
B16: hIL-2-anti-HSA A50 (ligand)
chain: B1 chain with K32E, N38R, T40L, Y45C, E62C
notes: fused to anti-HSA VHH; also called hIL-2 mutein (K32E, Y45C, E62C, C125S)
B17: hIL-2-anti-HSA A60 (ligand)
chain: B1 chain with T3A, E15V, F42A
notes: fused to anti-HSA VHH; also called hIL-2 mutein (T3A, E15V, R38N, L40T, F42A, C125S)
B18: hIL-2-anti-HSA A72 (ligand)
chain: B1 chain with K32E, N38R, T40L, F42C, V69C, E95N
notes: fused to anti-HSA VHH; also called hIL-2 mutein (K32E, F42C, V69C, E95N, C125S)
B19: hIL-2-anti-HSA A69 (ligand)
chain: B1 chain with K32E, N38R, T40L, F42C, V69C, S87D
notes: fused to anti-HSA VHH; also called hIL-2 mutein (K32E, F42C, V69C, S87D, C125S)
B20: hIL-2-anti-HSA A39 (ligand)
chain: B1 chain with K32E, N38E, T40L, F42A
notes: fused to anti-HSA VHH; also called IL2 mutein (K32E, R38E, F42A, C125S)
B21: hIL-2-anti-HSA A67 (ligand)
chain: B1 chain with K32E, N38R, T40L, F42C, V69C, D84T
notes: fused to anti-HSA VHH; also called hIL-2 mutein (K32E, F42C, V69C, D84T, C125S)
B22: hIL-2-anti-HSA A40 (ligand)
chain: B1 chain with K32E, N38G, T40L, F42A
notes: fused to anti-HSA VHH; also called IL2 mutein (K32E, R38G, F42A, C125S)
B23: hIL-2-anti-HSA A46 (ligand)
chain: B1 chain with K32E, N38G, T40L, F42K
notes: fused to anti-HSA VHH; also called IL2 mutein (K32E, R38G, F42K, C125S)
B24: hIL-2-anti-HSA A47 (ligand)
chain: B1 chain with K32E, K35C, N38R, T40L, L72C
notes: fused to anti-HSA VHH; also called hIL-2 mutein (K32E, K35C, L72C, C125S)
B25: hIL-2-anti-HSA A52 (ligand)
chain: B1 chain with N38R, T40L, F42C, V69C
notes: fused to anti-HSA VHH; also called hIL-2 mutein (F42C, V69C, C125S)
B26: hIL-2-anti-HSA A73 (ligand)
chain: B1 chain with K32E, N38R, T40L, F42C, V69C, E95Q
notes: fused to anti-HSA VHH; also called hIL-2 mutein (K32E, F42C, V69C, E95Q, C125S)
B27: hIL-2-anti-HSA A63 (ligand)
chain: B1 chain with T3A, F42A, V91I
notes: fused to anti-HSA VHH; also called hIL-2 mutein (T3A, R38N, L40T, F42A, V91I, C125S)
B28: hIL-2-anti-HSA A64 (ligand)
chain: B1 chain with T3A, F42A, E95N
notes: fused to anti-HSA VHH; also called hIL-2 mutein (T3A, R38N, L40T, F42A, E95N, C125S)
B29: hIL-2-anti-HSA A66 (ligand)
chain: B1 chain with L19S, K32E, N38R, T40L, F42C, V69C
notes: fused to anti-HSA VHH; also called hIL-2 mutein (L19S, K32E, F42C, V69C, C125S)
B30: hIL-2-anti-HSA A48 (ligand)
chain: B1 chain with K32E, N38C, T40L, L72C
notes: fused to anti-HSA VHH; also called hIL-2 mutein (K32E, R38C, L72C, C125S)
B31: hIL-2-anti-HSA A54 (ligand)
chain: APTSSSTKKTQLQLEHLLLDLQMILNGINNYENPKLTDATLYMPKKATELKHLQCLEEELKPLEEVLNLAQSKNFHLRPRDLISNINVIVLELKGSETTFMCEYADETATIVEFLNRWITFSQSIISTLTGSGGSGGSGGSGEVQLVESGGGLVQPGGSLRLSCAASGSTWSINTLAWYRQAPGKQRDLVARISSGGSTYYADSVKGRFTISRDNSKNTLYLQMNSLRAEDTAVYYCYAQSTWYPPSWGQGTLVTVSS
notes: fused to anti-HSA VHH; also called IL-2-IL-15 chimera 1
B32: hIL-2-anti-HSA A55 (ligand)
chain: APTSSSTKKTQLQLEHLLLDLQMILNGIQSMEIDATTFKFYMPKKATELKHLQCLEEELKPLEEVLNLAQSKNFHLRPRDLISNINVIVLELKGSETTFMCEYADETATIVEFLNRWITFSQSIISTLTGSGGSGGSGGSGEVQLVESGGGLVQPGGSLRLSCAASGSTWSINTLAWYRQAPGKQRDLVARISSGGSTYYADSVKGRFTISRDNSKNTLYLQMNSLRAEDTAVYYCYAQSTWYPPSWGQGTLVTVSS
notes: fused to anti-HSA VHH; also called IL-2-IL-15 chimera 2
B33: hIL-2-anti-HSA A56 (ligand)
chain: APTSSSTKKTQLQLEHLLLDLQMILNGIQSMEIDATKFYMPKKATELKHLQCLEEELKPLEEVLNLAQSKNFHLRPRDLISNINVIVLELKGSETTFMCEYADETATIVEFLNRWITFSQSIISTLTGSGGSGGSGGSGEVQLVESGGGLVQPGGSLRLSCAASGSTWSINTLAWYRQAPGKQRDLVARISSGGSTYYADSVKGRFTISRDNSKNTLYLQMNSLRAEDTAVYYCYAQSTWYPPSWGQGTLVTVSS
notes: fused to anti-HSA VHH; also called IL-2-IL-15 chimera 3

Assays:
IL-2Rα-Fc fusion protein [1] = biological target: T1, IL-2Rα-Fc fusion protein (human, UniProt P01589 22-240); experiment: BLI (Octet RED96), IL-2Rα-Fc on AHC biosensor
T1 construct: also called human IL-2Rα (CD25); CD25; not shown: Fc part and any linker are not described; captured on an anti-human IgG Fc sensor
T1 sequence: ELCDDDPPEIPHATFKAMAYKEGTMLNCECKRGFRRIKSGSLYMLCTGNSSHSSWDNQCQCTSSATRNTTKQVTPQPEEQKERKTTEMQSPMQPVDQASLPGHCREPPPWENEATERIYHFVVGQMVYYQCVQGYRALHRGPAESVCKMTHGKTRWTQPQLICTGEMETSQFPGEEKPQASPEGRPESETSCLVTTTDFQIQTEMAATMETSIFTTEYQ
Procedure: (§1) OCTET® RED96 was used to characterize the interactions of a wild-type hIL-2 and hIL-2 muteins with a human IL-2Rα (CD25). Briefly, an IL-2Rα-Fc fusion protein was loaded onto an anti-human IgG Fc capture (AHC) biosensor. The biosensor was then dipped into a solution containing a wild-type hIL-2 (WT IL-2) or an IL-2 mutein at various concentrations. Primary experimental data was analyzed with global fitting to determine a binding affinity (Kd).

human CD122-Fc (AbroBio) = biological target: T2, human CD122-Fc (AbroBio) (human, UniProt P14784 27-239); experiment: BLI (Octet RED96), CD122-Fc on AHC sensor, 400 nM hIL-2 polypeptide
T2 construct: also called IL-2Rβ; not shown: Fc part and any linker of the bought protein are not described; captured on an anti-human Fc sensor
T2 sequence: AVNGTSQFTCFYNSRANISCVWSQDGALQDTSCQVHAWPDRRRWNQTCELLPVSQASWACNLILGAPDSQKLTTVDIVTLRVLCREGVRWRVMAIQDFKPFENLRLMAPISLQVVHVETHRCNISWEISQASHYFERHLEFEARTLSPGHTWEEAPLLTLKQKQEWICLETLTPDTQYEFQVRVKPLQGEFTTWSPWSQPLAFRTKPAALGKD
Procedure: OCTET® RED96 was used to characterize the interactions of a human CD122-Fc (AbroBio) with a wild-type hIL-2 and hIL-2 muteins. Briefly, an anti-human Fc sensor (AHC) loaded with the human CD122 was dip into 400 nM of an hIL-2 polypeptide. The binding signaling of fusion protein A1 was normalized to 1.

IL-2Rα-Fc fusion protein [2] = biological target: T1, IL-2Rα-Fc fusion protein; experiment: BLI (Octet RED96), IL-2Rα-Fc on AHC biosensor, global fit
Procedure: as §1

Binder	binding result (IL-2Rα-Fc fusion protein [1])	CD122 Binding Response (A1 normalized to 1) (human CD122-Fc (AbroBio))	Kd (IL-2Rα-Fc fusion protein [2]) [nM]
B1	no binding	0.68	
B2	no binding	1.04	
B3		0.5	
B4	no binding		
B5	no binding		
B6		1.72	
B7	no binding		
B8		1.31	
B9		0.29	
B10	no binding		
B11			50
B12		0.17	
B13		0.55	
B14	no binding		
B15		1.44	
B16	no binding		
B17		0.14	

Binder	binding result (IL-2Rα-Fc fusion protein [1])	CD122 Binding Response (A1 normalized to 1) (human CD122-Fc (AbroBio))	Kd (IL-2Rα-Fc fusion protein [2]) [nM]
B18		0.39	
B19		1.93	
B20	no binding		
B21		0.3	
B22	no binding		
B23	no binding		
B24			> 15
B25	no binding		
B26		0.38	
B27		0.35	
B28		0.22	
B29		0.65	
B30	no binding		
B31	no binding		
B32	no binding		
B33	no binding		
